Data reported in patent US20200300873A1.

What was measured:
[1] = target: T1, Human hepcidin peptide (hepcidin-25) (human); experiment: Biacore (SPR); lower end of the estimated range 7-8 pM
T1 sequence (peptide): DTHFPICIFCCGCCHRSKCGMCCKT

[2] = target: T1, Human hepcidin peptide (hepcidin-25) (human); experiment: method not stated
[3] = target: T1, Human hepcidin peptide (hepcidin-25) (human); experiment: Biacore (SPR); upper end of the estimated range 7-8 pM
[4] = target: Hepcidin MAb 583; experiment: competitive ELISA on mAb 583 coated wells; competitor biotinylated hepcidin-25 tracer; standard at 250 ng/mL
Chain of Hepcidin MAb 583 (heavy, as listed by the source, chain 1 of 2): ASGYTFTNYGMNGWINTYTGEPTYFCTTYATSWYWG
Chain of Hepcidin MAb 583 (light, as listed by the source, chain 2 of 2): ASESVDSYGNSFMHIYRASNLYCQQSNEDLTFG

[5] = target: Hepcidin MAb 583; experiment: competitive ELISA on mAb 583 coated wells; competitor biotinylated hepcidin-25 tracer; standard at 0 ng/mL
[6] = target: Hepcidin MAb 583; experiment: competitive ELISA on mAb 583 coated wells; competitor biotinylated hepcidin-25 tracer; standard at 2.5 ng/mL
[7] = target: Hepcidin MAb 583; experiment: competitive ELISA on mAb 583 coated wells; competitor biotinylated hepcidin-25 tracer; standard at 50 ng/mL
[8] = target: Hepcidin MAb 583; experiment: competitive ELISA on mAb 583 coated wells; competitor biotinylated hepcidin-25 tracer; standard at 25 ng/mL
[9] = target: Hepcidin MAb 583; experiment: competitive ELISA on mAb 583 coated wells; competitor biotinylated hepcidin-25 tracer; standard at 10 ng/mL
[10] = target: Hepcidin MAb 583; experiment: competitive ELISA on mAb 583 coated wells; competitor biotinylated hepcidin-25 tracer; standard at 1000 ng/mL
[11] = target: Hepcidin MAb 583; experiment: competitive ELISA on mAb 583 coated wells; competitor biotinylated hepcidin-25 tracer; standard at 100 ng/mL

Binder	Kd [1] [pM]	affinity (unit not given) [2]	Kd [3] [pM]	Absorbance (450 nm) [4] [OD 450 nm]	Absorbance (450 nm) [5] [OD 450 nm]	Absorbance (450 nm) [6] [OD 450 nm]	Absorbance (450 nm) [7] [OD 450 nm]	Absorbance (450 nm) [8] [OD 450 nm]	Absorbance (450 nm) [9] [OD 450 nm]	Absorbance (450 nm) [10] [OD 450 nm]	Absorbance (450 nm) [11] [OD 450 nm]
Hepcidin MAb 583 (antibody, from a related filing, V domains shown, part only) VH: QIQLVQSGPELKKPGETVKISCKASGYTFTNYGMNWVKQAPGKGLKWMGWINTYTGEPTYADDFKGRFAFSLETSASTAYLQINNLKNEDTATYFCTTYATSWYWGQG VL: DIVLTQSPASLAVSLGQRATISCRASESVDSYGNSFMHWYQQKPGQPPKLLIYRASNLESGIPARFSGSGSRTDFTLTINPVEADDVATYYCQQSNEDLTFG	7 to 8	5.16e-11	7 to 8								
DTHFPICIFCCGCCHRSKCGMCCKT [Human hepcidin peptide (hepcidin-25)]				0.1	2.36	2.14	0.47	0.9	1.61	0.03	0.24
